As usually defined, the kcat is the number of substrate molecules converted per active site and unit of time at saturation. The term KM denotes the substrate concentration at which the rate is half of its maximum.

We go through 17 variants from the supplement of paper PMC7125110.

First the molecules themselves.
B1: glmS ribozyme (parent)
chain: AUAAAAGCGCCAGAACUACAGAAAUGUAGUUGACGAGGAGGAGGUUUAUCGAAUUUUCGGCGGAUGCCUCCAAA

± gives the standard error. For some of these results: Fewer inactive variants are shown than the library holds.

Holding throughout (conditions): with glucosamine-6-phosphate
Variants of B1 are the subject of data set [1]. Put plainly: kcat; higher = faster cleavage; RNA array. The procedure, abridged:
(§1)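 The measurements used barcoded ribozyme variants on sequenced MiSeq chips, transcribed in situ by E. coli RNA polymerase and tracked at 37 °C with a hybridised Cy3 probe. Glucosamine-6-phosphate, 40 μM to 10 mM in HEPES/KCl/Mg(OAc)2 buffer, was flowed in while tiles were imaged over ~14 h. Baseline-normalised signals, also normalised to non-cleaving reference variants, gave per-tile medians that were fit to one- or two-exponential decays for kobs. kcat and KM resulted from weighted Michaelis–Menten fits across concentrations.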

In data set [2] the parent is B1. Kind of data set: KM; higher = weaker cofactor use; RNA array. Summed up: as §1
Variants of B1 are the subject of data set [3]. Put plainly: self-cleavage kobs at 640 uM GlcN6P; higher = faster cleavage; RNA array. The procedure, abridged: as §1
In data set [4] the parent is B1. Kind of data set: self-cleavage kobs at 2500 uM GlcN6P; higher = faster cleavage; RNA array. Summed up:
as §1

The variants in data set [5] derive from B1. Put plainly: self-cleavage kobs at 10000 uM GlcN6P; higher = faster cleavage; RNA array. The procedure, abridged: as §1
In data set [6] the parent is B1. Kind of data set: self-cleavage kobs at 40 uM GlcN6P; higher = faster cleavage; RNA array. Summed up: as §1
The variants in data set [7] derive from B1. Put plainly: self-cleavage kobs at 160 uM GlcN6P; higher = faster cleavage; RNA array. The procedure, abridged:
as §1

Regarding A6C C70U, in data set [1], the kcat was determined as 0.000107 ± 2.6e-06 s⁻¹. Further, the KM in data set [2] came out at 1350 ± 110 µM. The “self-cleavage kobs at 640 uM GlcN6P” value in data set [3] is 3.3e-05 ± 6.9e-06 s⁻¹. In addition, the “self-cleavage kobs at 2500 uM GlcN6P” value in data set [4] was found to be 7.26e-05 ± 9.6e-06 s⁻¹. The “self-cleavage kobs at 10000 uM GlcN6P” value in data set [5] was determined as 9.39e-05 ± 7.1e-06 s⁻¹.

For G60U C67A C68U, in data set [1], the kcat is less than 1e-05 s⁻¹. The “self-cleavage kobs at 640 uM GlcN6P” value in data set [3] was less than 1e-05 s⁻¹. Also, in data set [5], the “self-cleavage kobs at 10000 uM GlcN6P” value is less than 1e-05 s⁻¹.

Regarding A39G U54A, the kcat in data set [1] worked out at 0.0133 ± 0.0029 s⁻¹. Further, the KM in data set [2] amounted to 282 ± 100 µM. Also, in data set [6], the “self-cleavage kobs at 40 uM GlcN6P” value was found to be 0.00173 ± 0.00037 s⁻¹. Also, the “self-cleavage kobs at 640 uM GlcN6P” value in data set [3] is 0.00823 ± 0.0019 s⁻¹. Also, in data set [5], the “self-cleavage kobs at 10000 uM GlcN6P” value was 0.018 ± 0.0076 s⁻¹.

On to A6C U65A, for which the kcat in data set [1] came out at 1.38e-05 ± 2.5e-07 s⁻¹. Besides, the KM in data set [2] stood at 3180 ± 190 µM.

Take U31A U47G: in data set [1], the kcat was found to be 0.00294 ± 0.0012 s⁻¹. For the same variant, in data set [6], the “self-cleavage kobs at 40 uM GlcN6P” value stood at 7.57e-05 ± 1.9e-05 s⁻¹. Also, the “self-cleavage kobs at 160 uM GlcN6P” value in data set [7] worked out at 0.000353 ± 7.9e-05 s⁻¹. Moreover, the “self-cleavage kobs at 640 uM GlcN6P” value in data set [3] stood at 0.00063 ± 0.00014 s⁻¹. In addition, the “self-cleavage kobs at 2500 uM GlcN6P” value in data set [4] was 0.00264 ± 0.00082 s⁻¹. In data set [5], the “self-cleavage kobs at 10000 uM GlcN6P” value was determined as 0.00266 ± 0.00079 s⁻¹.

Turning to G29U G60A, the kcat in data set [1] is less than 1e-05 s⁻¹. Also, in data set [6], the “self-cleavage kobs at 40 uM GlcN6P” value is less than 1e-05 s⁻¹. Besides, the “self-cleavage kobs at 160 uM GlcN6P” value in data set [7] is less than 1e-05 s⁻¹. Further, the “self-cleavage kobs at 640 uM GlcN6P” value in data set [3] is less than 1e-05 s⁻¹. The “self-cleavage kobs at 10000 uM GlcN6P” value in data set [5] is less than 1e-05 s⁻¹.

As to U55A U65C, the kcat in data set [1] was found to be 0.000613 ± 6.7e-05 s⁻¹. In addition, the Michaelis-Menten constant (KM) in data set [2] turned out to be 1160 ± 230 µM. In data set [7], the “self-cleavage kobs at 160 uM GlcN6P” value is 7.83e-05 ± 1.4e-05 s⁻¹. For the same variant, the “self-cleavage kobs at 640 uM GlcN6P” value in data set [3] stood at 0.0002 ± 2.9e-05 s⁻¹. In addition, the “self-cleavage kobs at 2500 uM GlcN6P” value in data set [4] was 0.000471 ± 6.1e-05 s⁻¹. In addition, the “self-cleavage kobs at 10000 uM GlcN6P” value in data set [5] was 0.000505 ± 9.2e-05 s⁻¹.

On to U30A G32U, for which the kcat in data set [1] came to 0.000735 ± 0.00018 s⁻¹. The KM in data set [2] was 4830 ± 1700 µM. In data set [7], the “self-cleavage kobs at 160 uM GlcN6P” value stood at 3.89e-05 ± 1.7e-05 s⁻¹. Further, the “self-cleavage kobs at 640 uM GlcN6P” value in data set [3] was 7.63e-05 ± 1.5e-05 s⁻¹. Further, in data set [4], the “self-cleavage kobs at 2500 uM GlcN6P” value is 0.000275 ± 4.2e-05 s⁻¹. The “self-cleavage kobs at 10000 uM GlcN6P” value in data set [5] was 0.000475 ± 9.5e-05 s⁻¹.

G40A G66U: the turnover number (kcat) in data set [1] stood at 0.000238 ± 1.9e-05 s⁻¹. Moreover, the KM in data set [2] amounted to 2050 ± 330 µM. Further, the “self-cleavage kobs at 640 uM GlcN6P” value in data set [3] was determined as 6.02e-05 ± 1.2e-05 s⁻¹. For the same variant, in data set [4], the “self-cleavage kobs at 2500 uM GlcN6P” value was determined as 0.000124 ± 2e-05 s⁻¹. In addition, the “self-cleavage kobs at 10000 uM GlcN6P” value in data set [5] turned out to be 0.000203 ± 3.5e-05 s⁻¹.

For A39U U65G, in data set [1], the kcat was 0.00369 ± 0.0011 s⁻¹. For the same variant, the KM in data set [2] is 2880 ± 1200 µM. The “self-cleavage kobs at 40 uM GlcN6P” value in data set [6] stood at 6.84e-05 ± 8.5e-06 s⁻¹. For the same variant, the “self-cleavage kobs at 160 uM GlcN6P” value in data set [7] is 0.0002 ± 2.9e-05 s⁻¹. Also, the “self-cleavage kobs at 640 uM GlcN6P” value in data set [3] is 0.000445 ± 9.7e-05 s⁻¹. In addition, the “self-cleavage kobs at 2500 uM GlcN6P” value in data set [4] was determined as 0.00164 ± 0.00021 s⁻¹. Further, the “self-cleavage kobs at 10000 uM GlcN6P” value in data set [5] is 0.0031 ± 0.00036 s⁻¹.

On to U31C G40U U47A, for which the kcat in data set [1] came to 0.000144 ± 4.5e-05 s⁻¹. The “self-cleavage kobs at 2500 uM GlcN6P” value in data set [4] was determined as 0.000154 ± 4.5e-05 s⁻¹. The “self-cleavage kobs at 10000 uM GlcN6P” value in data set [5] is 0.000116 ± 2.2e-05 s⁻¹.

For U31C U47C, in data set [1], the kcat was determined as 0.000503 ± 6.2e-05 s⁻¹. Besides, the KM in data set [2] was 2160 ± 430 µM. In data set [3], the “self-cleavage kobs at 640 uM GlcN6P” value is 0.000111 ± 2e-05 s⁻¹. For the same variant, the “self-cleavage kobs at 2500 uM GlcN6P” value in data set [4] was 0.000269 ± 5.7e-05 s⁻¹. Further, the “self-cleavage kobs at 10000 uM GlcN6P” value in data set [5] came to 0.00042 ± 0.00011 s⁻¹.

With A12G C58G C67A, the kcat in data set [1] came out at 0.000115 ± 2.4e-05 s⁻¹. Further, the “self-cleavage kobs at 640 uM GlcN6P” value in data set [3] was 0.000136 ± 3.6e-05 s⁻¹. The “self-cleavage kobs at 2500 uM GlcN6P” value in data set [4] was found to be 9.94e-05 ± 2.1e-05 s⁻¹.

For the variant A42U C68G, in data set [1], the kcat stood at 1.72e-05 ± 6.1e-06 s⁻¹.

G13A A36C: in data set [1], the kcat was less than 1e-05 s⁻¹. Moreover, the “self-cleavage kobs at 10000 uM GlcN6P” value in data set [5] was less than 1e-05 s⁻¹.

Consider A15C U30A A48U, for which the kcat in data set [1] was 6.89e-05 ± 1.4e-05 s⁻¹. For the same variant, the “self-cleavage kobs at 40 uM GlcN6P” value in data set [6] is less than 1e-05 s⁻¹. In data set [4], the “self-cleavage kobs at 2500 uM GlcN6P” value stood at 4.08e-05 ± 1.4e-05 s⁻¹. Moreover, the “self-cleavage kobs at 10000 uM GlcN6P” value in data set [5] was found to be 5.4e-05 ± 2e-05 s⁻¹.

A48U U69C: the kcat in data set [1] came to 0.000248 ± 8.5e-06 s⁻¹. Further, the KM in data set [2] came out at 1640 ± 120 µM. Besides, in data set [3], the “self-cleavage kobs at 640 uM GlcN6P” value stood at 7.15e-05 ± 1e-05 s⁻¹. In data set [4], the “self-cleavage kobs at 2500 uM GlcN6P” value was determined as 0.000147 ± 1.8e-05 s⁻¹. Further, the “self-cleavage kobs at 10000 uM GlcN6P” value in data set [5] is 0.000215 ± 2.7e-05 s⁻¹.
